Patent US20260263594A1
Where “and” joins values, the source holds several entries; their conditions need not be identical. Equal entries are not always repeated.

How the values were obtained:
[1] = biological target: Holo-transferrin (Homo sapiens (Human)) (UniProt P02787); test: SPR, Biacore T200, multi-cycle, Tbp-B at 6.17-500 nM; Run-2
[2] = biological target: Holo-transferrin (Homo sapiens (Human)) (UniProt P02787); test: SPR, Biacore T200, multi-cycle, Tbp-B at 6.17-500 nM; average of 3 runs
[3] = biological target: Holo-transferrin (Homo sapiens (Human)) (UniProt P02787); test: SPR, Biacore T200, multi-cycle, Tbp-B at 6.17-500 nM; Run-3
[4] = biological target: Holo-transferrin (Homo sapiens (Human)) (UniProt P02787); test: SPR, Biacore T200, multi-cycle, Tbp-B at 6.17-500 nM; Run-1

Sequence of UniProt P02787 (P02787 20-698 limits assumed, form in doubt): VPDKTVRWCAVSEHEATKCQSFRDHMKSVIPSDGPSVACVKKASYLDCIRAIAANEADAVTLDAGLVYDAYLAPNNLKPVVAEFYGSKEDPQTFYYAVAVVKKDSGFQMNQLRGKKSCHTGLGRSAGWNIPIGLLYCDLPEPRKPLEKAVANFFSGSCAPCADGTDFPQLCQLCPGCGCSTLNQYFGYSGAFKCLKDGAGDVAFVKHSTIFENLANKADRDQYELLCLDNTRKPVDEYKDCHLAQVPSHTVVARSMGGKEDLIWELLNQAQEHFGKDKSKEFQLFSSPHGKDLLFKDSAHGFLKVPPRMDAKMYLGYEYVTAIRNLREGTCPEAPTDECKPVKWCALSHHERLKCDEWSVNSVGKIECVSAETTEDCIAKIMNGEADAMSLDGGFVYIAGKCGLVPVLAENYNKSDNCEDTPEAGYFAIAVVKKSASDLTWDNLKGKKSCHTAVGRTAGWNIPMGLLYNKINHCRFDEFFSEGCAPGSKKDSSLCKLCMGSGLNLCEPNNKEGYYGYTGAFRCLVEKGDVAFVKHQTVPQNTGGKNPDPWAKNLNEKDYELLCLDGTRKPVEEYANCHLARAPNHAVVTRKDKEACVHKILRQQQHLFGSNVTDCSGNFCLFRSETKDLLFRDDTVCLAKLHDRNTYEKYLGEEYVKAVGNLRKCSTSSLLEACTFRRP

Substance: recombinant transferrin binding protein B (r-Tbp-B) from Neisseria meningitidis serogroup C / serotype 2a (strain FAM18) (receptor)
- Kd [1]: 8.1 nM and 21 nM and 19 nM
- koff [1]: 0.019 s⁻¹ and 0.009 s⁻¹
- Kd [2]: 7.92 nM and 18.6 nM and 19.5 nM
- koff [2]: 0.019 s⁻¹ and 0.009 s⁻¹
- Kd [3]: 8.1 nM and 19 nM and 22 nM
- koff [3]: 0.02 s⁻¹ and 0.009 s⁻¹
- Kd [4]: 7.55 nM and 16.3 nM and 18.3 nM
- koff [4]: 0.0187 s⁻¹ and 0.0081 s⁻¹ and 0.0083 s⁻¹
